For this assay, the target named is CDK5RAP2 (human (endogenous in HeLa)) (UniProt Q96SN8). Nature of the assay: co-IP.

Among the data in paper PMC2854379 are percent of total AKAP450 co-immunoprecipitated by CDK5RAP2 antibody values, retold here.

Chain of UniProt Q96SN8 (Q96SN8 whole entry): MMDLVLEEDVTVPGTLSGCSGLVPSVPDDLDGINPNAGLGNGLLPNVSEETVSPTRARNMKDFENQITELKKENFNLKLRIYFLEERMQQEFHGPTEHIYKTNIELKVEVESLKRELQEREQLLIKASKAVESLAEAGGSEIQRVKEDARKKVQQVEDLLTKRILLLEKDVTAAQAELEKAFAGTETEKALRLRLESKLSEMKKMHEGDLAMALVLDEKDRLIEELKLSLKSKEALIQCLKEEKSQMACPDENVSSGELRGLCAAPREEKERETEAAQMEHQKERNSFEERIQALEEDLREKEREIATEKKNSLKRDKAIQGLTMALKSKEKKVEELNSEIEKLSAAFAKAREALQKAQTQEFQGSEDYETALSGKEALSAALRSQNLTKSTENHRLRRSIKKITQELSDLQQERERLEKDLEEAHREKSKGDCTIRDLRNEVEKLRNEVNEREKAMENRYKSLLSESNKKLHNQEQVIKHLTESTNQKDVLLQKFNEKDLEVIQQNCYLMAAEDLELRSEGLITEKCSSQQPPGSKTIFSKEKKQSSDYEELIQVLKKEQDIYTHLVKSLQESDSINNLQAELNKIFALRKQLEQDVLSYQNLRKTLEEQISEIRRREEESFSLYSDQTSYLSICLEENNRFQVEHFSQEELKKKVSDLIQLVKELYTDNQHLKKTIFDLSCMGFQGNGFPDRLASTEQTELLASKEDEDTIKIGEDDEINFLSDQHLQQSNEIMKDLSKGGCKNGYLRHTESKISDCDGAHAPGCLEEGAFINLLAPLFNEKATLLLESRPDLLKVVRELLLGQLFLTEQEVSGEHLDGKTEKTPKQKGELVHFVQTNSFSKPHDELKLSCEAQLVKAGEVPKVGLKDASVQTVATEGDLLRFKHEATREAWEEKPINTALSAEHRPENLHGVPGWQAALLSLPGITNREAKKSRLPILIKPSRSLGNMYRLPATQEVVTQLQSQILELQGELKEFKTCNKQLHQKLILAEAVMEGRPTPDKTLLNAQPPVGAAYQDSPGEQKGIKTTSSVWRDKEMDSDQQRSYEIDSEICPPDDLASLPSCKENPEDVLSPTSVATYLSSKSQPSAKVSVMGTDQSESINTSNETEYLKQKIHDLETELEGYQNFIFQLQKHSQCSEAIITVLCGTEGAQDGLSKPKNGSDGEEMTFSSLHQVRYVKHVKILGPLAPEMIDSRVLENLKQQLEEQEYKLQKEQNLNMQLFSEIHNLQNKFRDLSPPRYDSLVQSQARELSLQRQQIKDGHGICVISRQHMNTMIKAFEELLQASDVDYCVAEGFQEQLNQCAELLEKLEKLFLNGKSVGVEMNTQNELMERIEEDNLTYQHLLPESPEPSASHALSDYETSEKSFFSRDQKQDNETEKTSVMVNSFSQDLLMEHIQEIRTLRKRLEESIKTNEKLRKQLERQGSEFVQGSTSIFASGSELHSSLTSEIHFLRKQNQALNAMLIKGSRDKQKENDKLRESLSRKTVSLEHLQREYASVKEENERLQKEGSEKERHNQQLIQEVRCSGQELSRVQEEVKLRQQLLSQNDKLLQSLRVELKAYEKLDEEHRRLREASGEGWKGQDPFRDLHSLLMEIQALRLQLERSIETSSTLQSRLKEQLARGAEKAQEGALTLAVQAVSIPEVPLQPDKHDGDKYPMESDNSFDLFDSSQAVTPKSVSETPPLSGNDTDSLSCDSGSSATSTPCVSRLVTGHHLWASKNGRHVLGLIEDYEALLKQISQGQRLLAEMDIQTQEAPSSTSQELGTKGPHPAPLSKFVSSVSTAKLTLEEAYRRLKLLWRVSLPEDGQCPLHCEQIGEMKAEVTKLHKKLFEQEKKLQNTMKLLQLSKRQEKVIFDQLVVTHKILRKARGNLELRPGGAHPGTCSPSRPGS

The substance AKAP450, Q99996 1-3907 gave a percent of total AKAP450 co-immunoprecipitated by CDK5RAP2 antibody of 40%.
